# In patent US20160264684A1, “GLYCAN-INTERACTING COMPOUNDS AND METHODS OF USE” (SIAMAB THERAPEUTICS, INC., priority 2013, published 2016):
# B1: 7G9-1A8: 7G9-1A8 IgG2b κ antibody; heavy chain variable domain SEQ ID NO 12, light chain SEQ ID NO 9 (antibody, V domains shown)
# VH: QVQLKESGPGLVAPSQNLSITCTVSGFSLTSYGVNWVRQPPGKGLEWLGVIWGDGSTNYHSALISRLIISKENSKSQVFLKLNSLQTNDTATYYCTKGFVYWGQGTLVTVSA
# VL: QIVLTQSPAIMSASPGEKVTMTCSASSSVSYMHWYQQKSGTSPKRWIFDTSKLASGVPARFSGSGSGTSYSLTISSMEAEDAATYYCQQWSSNLLTFGAGTKLELK
# How the values were obtained:
# [1] = system: E3-STn cells; experiment: E3-STn transfected murine breast tumor allograft model, tumor volume; type: in vivo, mouse; conditions: 7G9-1A8 25 mg/kg ip twice weekly 3 weeks, Paclitaxel daily 5 days
# Experimental: 3 test articles were evaluated during the study.
# Standard deviation values are listed in parenthesis.
# [2] = E3-STn allograft model, complete blood count (CBC); type: in vivo, mouse; set-up: Red blood cells / White blood cells: unit not given here; conditions: CBC at end of study, antibody-treated mice
# Experimental: At the end of the study, a complete blood count (CBC) was obtained for 5 mice treated with antibody as well as 3 mice treated with vehicle control. Blood was collected from all mice via terminal cardiac puncture and processed for plasma. Blood was placed in EDTA microtainer tubes (BD & Co., Franklin Lakes, N.J.) then centrifuged. Plasma layers were then removed and snap frozen in cryo vials (Thermo-Fisher Scientific, Rochester, N.Y.) and stored at −80° C. until analysis. Analysis was carried out to look for levels of a variety of factors.
# [3] = Pathological evaluation of organs (H&E); type: in vivo, mouse
# Experimental: At the end of the study described in Example 22, three mice from the vehicle control group and five mice that received 7G9-1A8 were chosen at random for post-study pathology assessment. Brain, colon, intestine, heart, kidney, liver, lung, mandibular salivary gland, pancreas, spleen, stomach, adrenal gland and thyroid gland organs were collected from each mouse. The organs were fixed in formalin (VWR; Radnor, Pa.) for about 48 hours, transferred to 70% ethanol (Sigma-Aldrich; St. Louis, Mo.), and then processed for standard H&E staining.
# The H&E stained tissue slides were examined for pathology review. Liver sections from each animal had multifocal inflammation with or without concomitant hepatocellular necrosis. The histo-pathological changes were minimal to mild in severity. There was no appreciable difference in the morphology of lesions among vehicle control group mice and mice that received 7G9-1A8.
# [4] = mouse, in vivo
molecule,measurement,setting,value
B1,Average Tumor Volume,[1]; day 1 of treatment,112.4 mm^3
same,Average Tumor Volume,[1]; day 4 of treatment,148.7 mm^3
same,Average Tumor Volume,[1]; day 6 of treatment,161.9 mm^3
same,Average Tumor Volume,[1]; day 8 of treatment,152.8 mm^3
same,Average Tumor Volume,[1]; day 11 of treatment,136.3 mm^3
same,Average Tumor Volume,[1]; day 13 of treatment,118.4 mm^3
same,Average Tumor Volume,[1]; day 15 of treatment,105.1 mm^3
same,Average Tumor Volume,[1]; day 18 of treatment,99.5 mm^3
same,Average Tumor Volume,[1]; day 20 of treatment,91.7 mm^3
same,Average Tumor Volume,[1]; day 22,105.2 mm^3
same,Average Tumor Volume,[1]; day 26,102.8 mm^3
same,Average Tumor Volume,[1]; day 27,107.4 mm^3
same,Average Tumor Volume,[1]; day 29,147.1 mm^3
same,Average Tumor Volume,[1]; day 32,160.6 mm^3
same,Average Tumor Volume,[1]; day 34,164.7 mm^3
same,Average Tumor Volume,[1]; day 36,212.1 mm^3
same,Average Tumor Volume,[1]; day 39,206.6 mm^3
same,Average Tumor Volume,[1]; day 41,235.3 mm^3
same,% Lymphocytes,[2],44.4%
same,% Monocytes,[2],4.6%
same,% Neutrophils (Segmented),[2],51.0%
same,Hematocrit,[2],46.9%
same,Hemoglobin,[2],16.0 g/dL
same,Lymphocytes,[2],5.6 10^9/L
same,Mean Corpuscular Hemoglobin,[2],16.2 pg
same,Mean Corpuscular Hemoglobin Concentration,[2],34.2 g/dL
same,Mean Corpuscular Volume,[2],47.4 fL
same,Mean platelet volume,[2],7.4 fL
same,Monocytes,[2],0.7 10^9/L
same,Neutrophils,[2],7.6 10^9/L
same,Platelet Cell Distribution Width,[2],32.2%
same,Platelet count,[2],712.2 10^3
same,Red Cell Distribution Width,[2],19.0%
same,Red blood cells,[2],9.9
same,White blood cells,[2]; blood by terminal cardiac puncture,13.9
same,liver histo-pathology vs vehicle control group,"[3]; 5 treated, 3 vehicle mice",no significant difference between the groups
same,neutrophil aggregation in the muscularis mucosa of the stomach,[3]; seen in two vehicle control mice,not observed
same,weight gain over the course of treatment as compared to vehicle control,[4],higher percent gain in weight
